Assay results as given in patent US20050003401, “Pfu replication accessory factors and methods of use” (Stratagene, published 2005).

Tests used:
[1] = molecular target: T1, RFA (replication factor A) (Pyrococcus furiosus); assay: EMSA; partial shift; 95 C 10 min then 72 C 2 min; conditions: tags: N-terminal CBP
T1 chain: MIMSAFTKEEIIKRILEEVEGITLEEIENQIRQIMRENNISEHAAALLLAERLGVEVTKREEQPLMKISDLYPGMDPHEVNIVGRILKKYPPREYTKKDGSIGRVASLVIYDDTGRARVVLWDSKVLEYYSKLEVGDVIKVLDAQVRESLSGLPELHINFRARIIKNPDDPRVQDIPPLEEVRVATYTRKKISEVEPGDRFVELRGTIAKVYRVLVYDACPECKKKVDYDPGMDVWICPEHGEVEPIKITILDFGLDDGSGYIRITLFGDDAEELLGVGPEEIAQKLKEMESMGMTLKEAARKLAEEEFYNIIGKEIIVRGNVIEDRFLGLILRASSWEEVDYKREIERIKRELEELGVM
Method: (§1) 50 ng of a 38-mer oligo was incubated with E. coli SSB (lane 1), water (lane 2), or P. furiosus RFA (lanes 3-7) in TE buffer (lanes 1-3), 1×cloned Pfu buffer (lane 4), 50 mM Tris pH 8.5, 25 mM KCl, 2 mM MgCl₂ (lane 5), 50 mM Tris pH 8.5, 25 mM KCl, 5 mM MgCl₂ (lane 6), or 50 mM Tris pH 8.5, 25 mM KCl, 2 mM ZnCl₂ (lane 7). Samples were incubated at 95° C. for 10 minutes, followed by 72° C. for 2 minutes prior to loading on a 4-20% acrylamide gradient gel in 1×TBE buffer. Bands were visualized by SYBR green staining and UV illumination.
(§2) To assess function, P. furiosus RFA was tested for single-stranded DNA binding activity in a gel shift assay (FIG. 18). […] The degree of migration of the oligo is related to the mass of the protein-DNA complex and the formation of protein multimers. E. coli SSB is known to form tetramers, but it is presently unknown whether P. furiosus RFA produces multimers as well.

[2] = molecular target: SSB (single-stranded DNA binding protein) (Escherichia coli, UniProt P0AGE0 P0AGE0:2-178); assay: EMSA; TE buffer; 95 C 10 min then 72 C 2 min; conditions: tags: Stratagene Perfect Match; chain copies: 4
SSB (single-stranded DNA binding protein), sequence (P0AGE0 2-178, one chain of several): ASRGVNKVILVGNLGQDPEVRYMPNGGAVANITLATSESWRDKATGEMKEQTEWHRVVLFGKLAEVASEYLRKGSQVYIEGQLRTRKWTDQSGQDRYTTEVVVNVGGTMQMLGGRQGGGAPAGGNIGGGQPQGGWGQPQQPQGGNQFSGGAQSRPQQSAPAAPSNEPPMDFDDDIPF
Method: as §1, §2

B1: 38-mer oligo (ssDNA)
DNA: GGTTTTCCCAGTCACGACGTTGTAAAACGACGGCCAGT
B1: binds [1]; binds [2].
